The subject of series [1] is Flag-tagged RORγt (wild type).
Series [2] addresses Myc-tagged IQGAP1 (wild type).

The text below walks through data of patent US20200057047.

Myc-tagged IQGAP1 (wild type), sequence (chain, as listed by the source): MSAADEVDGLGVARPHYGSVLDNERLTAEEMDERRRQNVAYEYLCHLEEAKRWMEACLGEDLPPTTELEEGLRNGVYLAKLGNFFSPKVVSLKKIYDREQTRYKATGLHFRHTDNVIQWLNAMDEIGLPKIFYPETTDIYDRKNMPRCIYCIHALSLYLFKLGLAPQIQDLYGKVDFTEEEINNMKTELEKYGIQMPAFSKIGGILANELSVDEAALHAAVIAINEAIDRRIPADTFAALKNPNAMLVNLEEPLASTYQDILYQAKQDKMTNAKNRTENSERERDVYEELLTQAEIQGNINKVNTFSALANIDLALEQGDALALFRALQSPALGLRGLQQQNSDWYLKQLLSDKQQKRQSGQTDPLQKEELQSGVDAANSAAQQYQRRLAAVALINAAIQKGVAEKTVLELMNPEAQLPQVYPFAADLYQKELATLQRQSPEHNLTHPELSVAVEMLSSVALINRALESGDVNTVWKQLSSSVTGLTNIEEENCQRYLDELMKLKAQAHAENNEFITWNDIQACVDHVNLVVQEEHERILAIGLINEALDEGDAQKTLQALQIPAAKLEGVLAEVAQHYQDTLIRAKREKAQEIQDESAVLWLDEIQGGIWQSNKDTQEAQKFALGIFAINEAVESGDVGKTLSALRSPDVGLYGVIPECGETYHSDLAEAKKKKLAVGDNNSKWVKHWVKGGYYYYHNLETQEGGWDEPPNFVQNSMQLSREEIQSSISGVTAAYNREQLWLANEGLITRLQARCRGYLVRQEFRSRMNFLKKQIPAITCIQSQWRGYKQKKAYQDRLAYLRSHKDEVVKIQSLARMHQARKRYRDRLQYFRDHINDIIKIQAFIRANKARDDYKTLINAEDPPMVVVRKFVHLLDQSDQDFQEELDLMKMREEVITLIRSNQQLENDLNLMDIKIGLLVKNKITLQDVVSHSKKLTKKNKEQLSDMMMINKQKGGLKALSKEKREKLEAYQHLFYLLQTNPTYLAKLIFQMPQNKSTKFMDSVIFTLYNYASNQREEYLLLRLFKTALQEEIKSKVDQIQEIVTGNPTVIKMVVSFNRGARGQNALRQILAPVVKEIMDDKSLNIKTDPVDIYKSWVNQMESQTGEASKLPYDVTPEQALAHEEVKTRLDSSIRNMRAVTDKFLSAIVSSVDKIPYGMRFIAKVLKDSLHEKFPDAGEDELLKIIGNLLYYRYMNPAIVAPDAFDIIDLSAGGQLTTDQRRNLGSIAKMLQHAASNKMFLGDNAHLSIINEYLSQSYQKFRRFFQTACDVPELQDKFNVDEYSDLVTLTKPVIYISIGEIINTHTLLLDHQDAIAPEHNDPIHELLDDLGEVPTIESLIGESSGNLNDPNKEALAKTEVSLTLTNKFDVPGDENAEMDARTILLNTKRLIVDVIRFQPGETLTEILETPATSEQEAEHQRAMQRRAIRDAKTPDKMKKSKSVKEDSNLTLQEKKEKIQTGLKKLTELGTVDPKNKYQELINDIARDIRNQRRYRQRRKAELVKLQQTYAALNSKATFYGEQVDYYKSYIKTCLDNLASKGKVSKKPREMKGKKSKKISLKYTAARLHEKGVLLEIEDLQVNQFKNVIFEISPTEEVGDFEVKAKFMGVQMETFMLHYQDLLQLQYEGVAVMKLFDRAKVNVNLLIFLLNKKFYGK
Flag-tagged RORγt (wild type), sequence (chain, as listed by the source): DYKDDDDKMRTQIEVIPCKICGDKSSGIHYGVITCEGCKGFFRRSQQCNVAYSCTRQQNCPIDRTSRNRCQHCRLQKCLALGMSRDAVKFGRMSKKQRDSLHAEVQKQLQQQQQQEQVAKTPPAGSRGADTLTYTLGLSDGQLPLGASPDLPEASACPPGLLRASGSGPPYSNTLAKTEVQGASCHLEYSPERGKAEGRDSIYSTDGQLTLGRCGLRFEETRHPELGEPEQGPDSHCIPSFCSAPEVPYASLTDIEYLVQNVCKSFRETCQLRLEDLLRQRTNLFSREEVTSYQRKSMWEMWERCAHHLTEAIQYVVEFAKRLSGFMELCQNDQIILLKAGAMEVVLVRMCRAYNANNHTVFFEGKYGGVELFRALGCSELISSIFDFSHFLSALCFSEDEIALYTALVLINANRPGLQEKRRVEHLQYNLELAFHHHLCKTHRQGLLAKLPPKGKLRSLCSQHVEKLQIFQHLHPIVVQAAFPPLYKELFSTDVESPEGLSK

B1: IKKβ (immunoprecipitated from HEK293T transfectants) (enzyme, UniProt O14920 1-756, looked up, species assumed)
Inhibitor of nuclear factor kappa-B kinase subunit beta: MSWSPSLTTQTCGAWEMKERLGTGGFGNVIRWHNQETGEQIAIKQCRQELSPRNRERWCLEIQIMRRLTHPNVVAARDVPEGMQNLAPNDLPLLAMEYCQGGDLRKYLNQFENCCGLREGAILTLLSDIASALRYLHENRIIHRDLKPENIVLQQGEQRLIHKIIDLGYAKELDQGSLCTSFVGTLQYLAPELLEQQKYTVTVDYWSFGTLAFECITGFRPFLPNWQPVQWHSKVRQKSEVDIVVSEDLNGTVKFSSSLPYPNNLNSVLAERLEKWLQLMLMWHPRQRGTDPTYGPNGCFKALDDILNLKLVHILNMVTGTIHTYPVTEDESLQSLKARIQQDTGIPEEDQELLQEAGLALIPDKPATQCISDGKLNEGHTLDMDLVFLFDNSKITYETQISPRPQPESVSCILQEPKRNLAFFQLRKVWGQVWHSIQTLKEDCNRLQQGQRAAMMNLLRNNSCLSKMKNSMASMSQQLKAKLDFFKTSIQIDLEKYSEQTEFGITSDKLLLAWREMEQAVELCGRENEVKLLVERMMALQTDIVDLQRSPMGRKQGGTLDDLEEQARELYRRLREKPRDQRTEGDSQEMVRLLLQAIQSFEKKVRVIYTQLSKTVVCKQKALELLPKVEEVVSLMNEDEKTVVRLQEKRQKELWNLLKIACSKVRGPVSGSPDSMNASRLSQPGQLMSQPSTASNSLPEPAKKSEELVAEAHNLCTLLENAIQDTVREQDQSFTALDWSWLQTEEEEHSCLEQAS
For the protein B1, the “in vitro kinase assay: RORγt phosphorylation” value in series [1] is reported as “RORγt phosphorylation was induced in vitro by IKKβ”.

B2: Flag-tagged GLK (protein)
chain: DYKDDDDKMNPGFDLSRRNPQEDFELIQRIGSGTYGDVYKARNVNTGELAAIKVIKLEPGEDFAVVQQEIIMMKDCKHPNIVAYFGSYLRRDKLWICMEFCGGGSLQDIYHVTGPLSELQIAYVSRETLQGLYYLHSKGKMHRDIKGANILLTDNGHVKLADFGVSAQITATIAKRKSFIGTPYWMAPEVAAVERKGGYNQLCDLWAVGITAIELAELQPPMFDLHPMRALFLMTKSNFQPPKLKDKMKWSNSFHHFVKMALTKNPKKRPTAEKLLQHPFVTQHLTRSLAIELLDKVNNPDHSTYHDFDDDDPEPLVAVPHRIHSTSRNVREEKTRSEITFGQVKFDPPLRKETEPHHELPDSDGFLDSSEEIYYTARSNLDLQLEYGQGHQGGYFLGANKSLLKSVEEELHQRGHVAHLEDDEGDDDESKHSTLKAKIPPPLPPKPKSIFIPQEMHSTEDENQGTIKRCPMSGSPAKPSQVPPRPPPPRLPPHKPVALGNGMSSFQLNGERDGSLCQQQNEHRGTNLSRKEKKDVPKPISNGLPPTPKVHMGACFSKVFNGCPLKIHCASSWINPDTRDQYLIFGAEEGIYTLNLNELHETSMEQLFPRRCTWLYVMNNCLLSISGKASQLYSHNLPGLFDYARQMQKLPVAIPAHKLPDRILPRKFSVSAKIPETKWCQKCCVVRNPYTGHKYLCGALQTSIVLLEWVEPMQKFMLIKHIDFPIPCPLRMFEMLVVPEQEYPLVCVGVSRGRDFNQVVRFETVNPNSTSSWFTESDTPQTNVTHVTQLERDTILVCLDCCIKIVNLQGRLKSSRKLSSELTFDFQIESIVCLQDSVLAFWKHGMQGRSFRSNEVTQEISDSTRIFRLLGSDRVVVLESRPTDNPTANSNLYILAGHENSY
Turning to B2, in series [2], the “in vitro kinase assay: IQGAP1 phosphorylation” value is “IQGAP1 phosphorylation was induced by GLK”.
